{
  "source": "patent US20220056091A1",
  "about": "(BRIGHT PEAK THERAPEUTICS, published 2022)",
  "binders": {"B1": {"name": "Fc fused human IL-18BP isoform a (IL-18BPa) (Fc fusion, UniProt O95998 31-194, looked up, not shown: a dimerising Fc or GST)", "chain": "TPVSQTTTAATASVRSTKDPCPSQPPVFPAAKQCPALEVTWPEVEVPLNGTLSLSCVACSRFPNFSILYWLGNGSFIEHLPGRLWEGSTSRERGSTGTQLCKALVLEQLTPALHSTNFSCVLVDPEQVVQRHVVLAQLWAGLRATLPPTQEALPSSHSSPQQQG"}},
  "test_in_all_cases": "cell-based or functional assay",
  "key": {"[1]": {"target": "Modified IL-18 polypeptide of SEQ ID NO: 20 (E06K, T63A) (human, UniProt Q14116 37-193)"}, "[2]": {"target": "T1, IL-18 polypeptide of SEQ ID NO: 1 (native sequence, human IL-18 37-193) (human, UniProt Q14116 37-193)", "T1 sequence": "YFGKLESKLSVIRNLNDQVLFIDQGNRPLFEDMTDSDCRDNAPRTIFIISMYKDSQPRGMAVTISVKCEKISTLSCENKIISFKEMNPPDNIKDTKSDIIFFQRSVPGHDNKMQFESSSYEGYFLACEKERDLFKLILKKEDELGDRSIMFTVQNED"}, "[3]": {"target": "Modified IL-18 polypeptide of SEQ ID NO: 5 (S55A) (human, UniProt Q14116 37-193)"}, "[4]": {"target": "T2, Modified IL-18 polypeptide of SEQ ID NO: 11 (E06K, K53A, S55A, Y01G) (human, UniProt Q14116 38-193)", "T2 chain": "T1 sequence with Y1G, E6K, K53A, S55A"}, "[5]": {"target": "Modified IL-18 polypeptide of SEQ ID NO: 21 (K53A, T63A) (human, UniProt Q14116 37-193)"}, "[6]": {"target": "Modified IL-18 polypeptide of SEQ ID NO: 4 (K53A) (human, UniProt Q14116 37-193)"}, "[7]": {"target": "Modified IL-18 polypeptide of SEQ ID NO: 19 (T63A) (human, UniProt Q14116 37-193)"}, "[8]": {"target": "T3, Modified IL-18 polypeptide of SEQ ID NO: 10 (E06K, K53A, S55A, T63A) (human, UniProt Q14116 37-193)", "T3 chain": "T1 sequence with E6K, K53A, S55A, T63A"}, "[9]": {"target": "T4, Modified IL-18 polypeptide of SEQ ID NO: 18 (E06K, K53A, T63A) (human, UniProt Q14116 37-193)", "T4 chain": "T1 sequence with E6K, K53A, T63A"}, "[10]": {"target": "Modified IL-18 polypeptide of SEQ ID NO: 8 (E06K, S55A) (human, UniProt Q14116 37-193)"}, "[11]": {"target": "T5, Modified IL-18 polypeptide of SEQ ID NO: 2 (E06K, K53A, S55A) (human, UniProt Q14116 37-193)", "T5 chain": "T1 sequence with E6K, K53A, S55A"}, "[12]": {"target": "Modified IL-18 polypeptide of SEQ ID NO: 9 (K53A, S55A) (human, UniProt Q14116 37-193)"}, "[13]": {"target": "T6, Modified IL-18 polypeptide of SEQ ID NO: 15 (C38S, C68S, C76S, C127S) (human, UniProt Q14116 37-193)", "T6 chain": "T1 sequence with C38S, C68S, C76S, C127S"}, "[14]": {"target": "T7, Modified IL-18 polypeptide of SEQ ID NO: 3 (Y01G, F02A, E06K, M51G, K53A, D54A, S55A, T63A) (human, UniProt Q14116 37-193)", "T7 chain": "T1 sequence with Y1G, F2A, E6K, M51G, K53A, D54A, S55A, T63A"}, "[15]": {"target": "Modified IL-18 polypeptide of SEQ ID NO: 7 (E06K, K53A) (human, UniProt Q14116 37-193)"}, "[16]": {"target": "T8, Modified IL-18 polypeptide of SEQ ID NO: 71 with a 30 kDa PEG attached at residue C68 (E6K, C38S, K53A, … (human, UniProt Q14116 37-193, 30 kDa PEG on Cys 68 (30 kDa DBCO-polyethylene glycol clicked to a bromoacetamido-PEG5-azide linker on the cysteine)))", "T8 chain": "T1 sequence with E6K, C38S, K53A"}},
  "note": "Changes are numbered by the printed parent chain.",
  "data": [
    {"binder": "B1", "values": [
      {"measurement": "IC50 (nM), IL-18BPa inhibition of IFNγ release by NK-92 cells (1 nM IL-18 analyte)", "setting": "[1]", "result": 47.1, "unit": "nM"},
      {"measurement": "IC50 (nM), IL-18BPa inhibition of IFNγ release by NK-92 cells (1 nM IL-18 analyte)", "setting": "[2]", "result": 1.47, "unit": "nM"},
      {"measurement": "IC50 (nM), IL-18BPa inhibition of IFNγ release by NK-92 cells (1 nM IL-18 analyte)", "setting": "[3]", "result": 4.46, "unit": "nM"},
      {"measurement": "IC50 (nM), IL-18BPa inhibition of IFNγ release by NK-92 cells (1 nM IL-18 analyte)", "setting": "[4]", "result": 27.8, "unit": "nM"},
      {"measurement": "IC50 (nM), IL-18BPa inhibition of IFNγ release by NK-92 cells (1 nM IL-18 analyte)", "setting": "[5]", "result": 18.2, "unit": "nM"},
      {"measurement": "IC50 (nM), IL-18BPa inhibition of IFNγ release by NK-92 cells (1 nM IL-18 analyte)", "setting": "[6]", "result": 27.3, "unit": "nM"},
      {"measurement": "IC50 (nM), IL-18BPa inhibition of IFNγ release by NK-92 cells (1 nM IL-18 analyte)", "setting": "[7]", "result": 0.239, "unit": "nM"},
      {"measurement": "IC50 (nM), IL-18BPa inhibition of IFNγ release by NK-92 cells (1 nM IL-18 analyte)", "setting": "[8]", "result": 1060, "unit": "nM"},
      {"measurement": "IC50 (nM), IL-18BPa inhibition of IFNγ release by NK-92 cells (1 nM IL-18 analyte)", "setting": "[9]", "result": "> 1000", "unit": "nM"},
      {"measurement": "IC50 (nM), IL-18BPa inhibition of IFNγ release by NK-92 cells (1 nM IL-18 analyte)", "setting": "[10]", "result": 15, "unit": "nM"},
      {"measurement": "IC50 (nM), IL-18BPa inhibition of IFNγ release by NK-92 cells (1 nM IL-18 analyte)", "setting": "[11]", "result": 229, "unit": "nM"},
      {"measurement": "IC50 (nM), IL-18BPa inhibition of IFNγ release by NK-92 cells (1 nM IL-18 analyte)", "setting": "[12]", "result": 37.3, "unit": "nM"},
      {"measurement": "IC50 (nM), IL-18BPa inhibition of IFNγ release by NK-92 cells (1 nM IL-18 analyte)", "setting": "[13]", "result": 0.444, "unit": "nM"},
      {"measurement": "IC50 (nM), IL-18BPa inhibition of IFNγ release by NK-92 cells (1 nM IL-18 analyte)", "setting": "[14]", "result": "> 55", "unit": "nM"},
      {"measurement": "IC50 (nM), IL-18BPa inhibition of IFNγ release by NK-92 cells (1 nM IL-18 analyte)", "setting": "[15]", "result": "> 703", "unit": "nM"},
      {"measurement": "IC50 (nM), IL-18BPa inhibition of IFNγ release by NK-92 cells (1 nM IL-18 analyte)", "setting": "[16]", "result": 0.66, "unit": "nM"}
    ]}
  ]
}
